Experimental data as given in patent publication US20260234242A1 (HAINAN SIMCERE ZAIMING PHARMACEUTICAL, published 2026).

Legend:
[1] = target: T1, his-tagged human CDH6 extracellular region protein (hCDH6 ECD-his) (human, UniProt P55285 19-615); assay: ELISA, coated antigen
T1 construct: also called Human CDH6-his; hCDH6-his; not shown: his tag
T1 sequence: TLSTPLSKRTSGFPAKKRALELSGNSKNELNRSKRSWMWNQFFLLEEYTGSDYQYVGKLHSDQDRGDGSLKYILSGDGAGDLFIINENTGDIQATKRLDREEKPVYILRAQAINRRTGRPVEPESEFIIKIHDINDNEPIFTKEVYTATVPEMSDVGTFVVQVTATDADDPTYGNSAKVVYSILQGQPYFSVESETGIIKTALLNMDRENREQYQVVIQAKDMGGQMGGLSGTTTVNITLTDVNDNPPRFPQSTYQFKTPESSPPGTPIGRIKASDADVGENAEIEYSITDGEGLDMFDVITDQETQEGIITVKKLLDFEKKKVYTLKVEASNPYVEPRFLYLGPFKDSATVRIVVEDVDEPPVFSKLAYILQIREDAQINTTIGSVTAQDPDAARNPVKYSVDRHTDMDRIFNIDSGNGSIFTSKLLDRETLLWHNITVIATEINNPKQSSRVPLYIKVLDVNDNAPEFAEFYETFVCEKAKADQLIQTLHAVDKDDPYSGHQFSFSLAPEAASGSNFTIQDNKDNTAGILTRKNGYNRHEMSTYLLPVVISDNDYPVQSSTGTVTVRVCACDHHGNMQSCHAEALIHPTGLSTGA

[2] = target: T2, human CDH6 on tumor cells (OVCAR3 cells, PA-1 cells) (human, UniProt P55285 54-790); assay: FACS, OVCAR3 cells, 4° C. arm of endocytosis assay
T2 sequence: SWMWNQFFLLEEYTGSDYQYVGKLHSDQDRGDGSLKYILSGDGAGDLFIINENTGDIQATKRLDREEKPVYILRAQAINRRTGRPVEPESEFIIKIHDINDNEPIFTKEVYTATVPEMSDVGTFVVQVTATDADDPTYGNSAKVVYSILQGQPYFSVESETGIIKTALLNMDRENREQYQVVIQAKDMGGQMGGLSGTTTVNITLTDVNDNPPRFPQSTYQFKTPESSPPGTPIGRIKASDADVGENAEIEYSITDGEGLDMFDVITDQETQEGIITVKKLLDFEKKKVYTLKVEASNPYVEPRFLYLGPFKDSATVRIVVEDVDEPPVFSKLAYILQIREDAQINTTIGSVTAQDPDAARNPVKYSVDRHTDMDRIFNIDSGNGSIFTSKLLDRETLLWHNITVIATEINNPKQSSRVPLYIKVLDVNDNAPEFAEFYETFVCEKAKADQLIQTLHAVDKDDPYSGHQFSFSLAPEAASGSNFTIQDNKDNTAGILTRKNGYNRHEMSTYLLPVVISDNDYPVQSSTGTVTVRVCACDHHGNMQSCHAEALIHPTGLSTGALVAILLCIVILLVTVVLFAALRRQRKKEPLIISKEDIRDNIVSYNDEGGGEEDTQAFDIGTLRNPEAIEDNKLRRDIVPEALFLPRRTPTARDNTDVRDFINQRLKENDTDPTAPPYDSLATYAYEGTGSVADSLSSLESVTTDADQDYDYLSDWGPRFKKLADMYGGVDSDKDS
Experimental: OVCAR3 cells were cultured until a confluence of 90% was reached, the medium was removed by pipetting, the cells were washed once with PBS, and then treated with an enzyme-free cell dissociation solution (Versene, purchased from Gibco, Cat. No. 15040-066) and the cells were collected. The cells were washed once with PBS, counted, resuspended to 2×10⁶ cells/mL in an FACS buffer (PBS+2% FBS), and then added to two 96-well plates at 50 μL/well. The chimeric antibodies were diluted with FACS buffer (PBS+2% FBS) to 10 μg/mL and separately added to the two 96-well plates at 50 μL/well, and the plates were incubated at 4° C. for 1 h. After the cells were washed 3 times with PBS, the cells were resuspended in an FACS buffer. One 96-well plate was incubated at 4° C. for 1 h, and the other 96-well plate was incubated at 37° C. for 1 h. […] After the plates were centrifuged and washed 2 times with PBS, the cells were resuspended in an FACS buffer. The mean fluorescence intensity (MFI) was measured using FACS Canton II (BD). The chimeric antibodies tested all had good endocytic activity.
Some of the antibodies were selected for the endocytic activity assay, and the method for assaying the endocytic activity of the humanized antibodies in OVCAR3 cells was the same as that in 2.4. The humanized antibodies tested all had good endocytic activity.

[3] = target: T2, human CDH6 on tumor cells (OVCAR3 …); assay: FACS, PA-1 cells
Experimental: OVCAR3 cells with high expression of CDH6 and PA-1 cells with moderate expression of CDH6 were used to detect the binding activity of the antibodies to the cells. […] The cells were washed once with PBS, counted, resuspended to 2×10⁶ cells/mL in an FACS buffer (PBS+2% FBS), and then added to a 96-well plate at 50 μL/well. The chimeric antibodies were diluted with FACS buffer (PBS+2% FBS) and added to the 96-well plate at 50 μL/well, and the plate was incubated at 4° C. for 1 h. […] The dilution was added to the 96-well plate at 50 μL/well, and the plate was incubated at 4° C. for 1 h. After the plates were centrifuged and washed 2 times with PBS, the cells were resuspended in an FACS buffer. The mean fluorescence intensity (MFI) was measured using FACS Canton II (BD). Analysis was performed by the GraphPad Prism software, data were fitted, and EC50 values were calculated. The chimeric antibodies tested had strong binding to both OVCAR3 cells and PA-1 cells.
According to the above sequences, heavy chain (HC) and light chain (LC) plasmids were constructed (the nucleic acid sequences encoding the VH and VL of the antibodies were recombined into an expression vector carrying a signal peptide (SEQ ID NO: 132, […]) and a heavy chain constant region/light chain constant region sequence to obtain recombinant plasmids expressing VH-CH1-Fc/VL-CL). According to the expression and purification methods in Example 2, the hCDH6-14 humanized antibodies were obtained, and the binding activity of the humanized antibodies was detected by ELISA and FACS (see 2.2 and 2.3 for the method).

B1: hCDH6-14-H6L3 (antibody, V domains shown)
VH: EVQLVQSGAEVKKPGASVKVSCKASGYTFTDNYINWVRQAPGQRLEWMGWIYPGTGNSYYNEKFKGRVTITVDTSASTAYMELSSLRSEDTAVYLCASSYGDSFDYWGQGTTVTVSS
VL: DIVMTQSPDSLAVSLGERATINCRASQDIRNYLNWYQQKPGQTPKLLISYTSRLHSGVPDRFSGSGSGTDFTLTISSLQAEDVAVYYCQQYSQLPWTFGGGTKVEIK
notes: Humanized
**Q.** For B1, which EC50 [1] is on record?
**A.** 62 pM

**Q.** And the “Max OD450” value [1]?
**A.** 2.72 OD450

**Q.** And the “MFI_4° C.” value [2]?
**A.** 16100 MFI

**Q.** And the EC50 [3]?
**A.** 250 pM

**Q.** What about the “Max MFI” value [3] of the same binder?
**A.** 3890 MFI
